Patent publication US20030157533A1, “Nucleic acid labeling by Thermoanaerobacter thermohydrosulfuricus DNA polymerase I variants” (priority 2001, published 2003)

Key:
Type in all cases: biochemical
[1] = test system: human skeletal muscle mRNA; assay: cDNA labeling using Cy3/Cy5-dCTP over a wide reaction temperature range, microarray (FIGS. 14a and b); details: reaction temperatures 37, 42, 45, 50, 55, 60 and 65 degrees; normalization factor of 2
Experimental: A 20 μl reaction Cy3 or Cy5 reaction had 1 μg of human skeletal muscle mRNA, oligo dT(25) and random nonamer primers and TtsFYDR polymerase enzyme in 1×reaction buffer (50 mM Tris, pH 8.0, 1 mM DDT, 40 mM KC, 100 uM dA,G and TTP and 50 um each of CTP and Cy3-dCTP or Cy5-dCTP depending on the reaction). Control mRNAs (APBiotech Inc.) of known sequence compositions were included in various concentrations to serve as dynamic range and gene expression ratio controls. Tts reactions were carried out at temperatures from 37, 42, 45, 50, 55, 60 and 65 degrees. For Superscript II, cDNA synthesis reactions were carried out at 42 C. (Life Technologies). Template RNA was hydrolyzed by alkali treatment and neutralized with HEPES.
Probes were purified using MultiScreen filters (Millipore) and quantified by spectrophotometry. Glass slides containing human cDNA gene targets were hybridized with equal amounts (30 pmol each) of Cy3 and Cy5 labeled cDNA probes. Slides were scanned using a GenePix® (Axon) scanner and quantified using ImageQuant software. A normalization factor of 2 (due to differences in the excitation efficiencies of Cy3 and Cy5) was applied to the observed ratio of raw flourescence signal. The figure illustrates precise determination of gene expression differences in Cy3 and Cy5 reactions.

[2] = test system: human skeletal muscle mRNA; assay: cDNA labeling using Cy3 and Cy5-dUTP, microarray (FIG. 10); details: Cy3-dUTP or Cy5-dUTP, 50 degrees C.
Experimental: (§1) A typical 20 μl reaction Cy3 or Cy5 reaction had 1 μg of human skeletal muscle mRNA, oligo dT(25) and random nonamer primers and TtsFYDR polymerase enzyme in 1×reaction buffer (50 mM Tris, pH 8.0, 1 mM DDT, 40 mM KC, 100 uM dA,G and CTP and 50 um each of TTP and Cy3-dUTP or Cy5-dUTP depending on the reaction). Control mRNAs (APBiotech Inc.) of known sequence compositions were included in various concentrations to serve as dynamic range and gene expression ratio controls. Tts reactions were carried out at temperatures from 50 degrees C. Template RNA was hydrolyzed by alkali treatment and neutralized with HEPES.
(§2) Probes were purified using MultiScreen filters (Millipore) and quantified by spectrophotometry. Glass slides containing human cDNA gene targets were hybridized with equal amounts (30 pmol each) of Cy3 and Cy5 labeled cDNA probes. Slides were scanned using a GenePix® (Axon) scanner and quantified using ImageQuant software.

[3] = test system: human skeletal muscle mRNA; assay: cDNA labeling using Cy3 and Cy5-dCTP, microarray (FIG. 9); details: Cy3-dCTP or Cy5-dCTP, 50 degrees C.
Experimental: as §1, with “TTP” for “CTP”, “CTP” for “TTP”, “Cy3-dCTP” for “Cy3-dUTP”, “Cy5-dCTP” for “Cy5-dUTP”
as §2

[4] = test system: Globin mRNA template annealed to P-33 labeled primer; assay: Single nucleotide incorporation of Cy3.5-dCTP or dCTP on RNA template (reverse transcriptase reaction, FIG. 7)
Experimental: The experiment shown in FIG. 7 investigates the relative efficiencies of incorporation of dye-CTP (Cy3.5-dCTP) and dCTP. Three enzyme preparations ΔTts, ΔTts F412Y, ΔTtsF412YD426R were analyzed in this experiment.
(§3) Optimized 1×buffer compositions for Reverse Transcriptase (RNA dependent DNA Polymerase) and DNA Polymerase (DNA dependent DNA polymerase) reactions for all variants of Tts Pol I are as follows. Tris, pH 8.0 (50 mM), KCl (40 mM), MgCl2 (3 mM), DTT (1 mM), DNA or RNA template (as needed), primer (5 to 50 femto mols), enzyme 0.5 to 1 units, dNTP or dNTP analog (varying concentrations as needed). In standard synthesis reactions, when full-length synthesis is monitored, 50 uM of all 4 dNTPs are included. Typical reaction volume is 10 ul. Reaction temperature was kept between 37-60 C. depending on the experimental needs. Reaction time was limited to 10 minutes for single nucleotide incorporation studies. Time was varied as needed for the purpose of the experiments, sometimes up to 1 hour if longer extensions are monitored.
The experiment shown in FIG. 7 investigates the relative efficiencies of incorporation of dye-CTP (Cy3.5-dCTP) and dCTP. Three enzyme preparations ΔTts, ΔTtsFY, ΔTtsF412YD426R were analyzed in this experiment.
In FIG. 7, Globin mRNA served as the template. A 5′ P-33 labeled primer (DNA 25-mer) was annealed to the template. Reactions were performed with varying concentrations of either Cy3.5-dCTP or dCTP alone. Inclusion of only one dNTP allowed incorporation of the next correct nucleotide alone. The sequence of the template-primer that allowed for the examination of single nucleotide “C” incorporation is shown below.
Lanes 1,2,3 and 4 contain 20, 2, 0.2, and 0.02 uM of dNTP or dye-dNTP. Lane with no label has no enzyme, to show the integrity of the starting P-33 labeled primer. Quantification of the single nucleotide extension product is one way to tell if DR change to in the enzyme led to any consequence. “P” indicates a radio labeled primer. “P+1” represents the elongated product by a single nucleotide or nucleotide analog. P+1 migrates slowly with the dye-dNTP conjugate. Note that the migration of Cy3.5 dCMP containing bands travel slowly on the gel compared to dCTP extended products. […] Essentially, incorporation is achieved at lower concentrations (less than 10 times) of dye-dNTP compared to that of the wild type polymerase. It is evident that the DR enzyme was able to incorporate Cy3.5 dCTP at concentrations as low as 0.2 uM (Cy3.5 dCTP) or even lower. […] In this experiment the template-primer is a mRNA annealed to radio labeled primer. Extension is monitored qualitatively as P+1 for the natural nucleotides and P+1* for dye labeled nucleotide. This is a promising first observation for potential use in microarray applications for cDNA probe labeling.

[5] = test system: defined DNA template-DNA primer; assay: Single nucleotide incorporation of dye-dCTP during DNA dependent DNA synthesis (FIG. 13)
Experimental: as §3
Primer extension was monitored using a defined DNA template-DNA primer.
In this experiment the relative efficiencies of incorporation of dye-CTP (Cy3.5-dCTP) was investigated. Three enzyme preparations were tested ΔTts, ΔTtsF412Y, and ΔTtsF412YD426R
Defined DNA shown below served as the template. A P-33 labeled primer (DNA 25 mer) was annealed to the template. Reactions were performed with varying concentrations of either Cy3.5-dCTP or dCTP alone. Inclusion of only one dNTP allowed incorporation of the next correct nucleotide alone. The sequence of the template-primer that allowed for the examination of single nucleotide “C” incorporation is shown below.
Lanes 1, 2, 3, 4 and 5 contain 20, 2, 0.2, 0.02 and 0 uM dye-dCTP. Lane 5 has no enzyme, to show the integrity of the starting p-33 labeled primer. Quantification of the single nucleotide extension product is one way to tell if DR change in the enzyme led to any consequence. “P” indicates a radio labeled primer. “P+1” represents the elongated product by a single nucleotide or nucleotide analog. P+1 migrates slowly with the dye-dNTP conjugate. Note that the migration of Cy3.5-dCTP containing band travel slowly on the gel compared to dCMP extended products. […] P+1 product is achieved between 10-100 fold less concentration of dye-dCTP with the enzyme having the DR change. Essentially, incorporation is achieved at a much lower concentration of dye-dNMP compared to the wild type enzyme. It is evident that the DR enzyme was able to incorporate Cy3.5-dCTP at concentrations as low as 0.2 uM or even lower.

B1: ΔTtsF412YD426R: exonuclease deficient truncated Tts DNA polymerase I with F412Y and D426R changes (SEQ ID No. 7) (protein, listed as Thermoanaerobacter thermohydrosulfuricus)
chain: MYKFLIIDGSSLMYRAYYALPMLTTSEGLPTNALYGFTMMLIKLIEEEKPDYIAIAFDKKAPTFRHKEYQDYKATRQAMPEELAEQVDYLKEIIDGFNIKTLELEGYEADDIIGTISKLAEEKGMEVLVVTGDRDALQLVSDKVKIKISKKGITQMEEFDEKAILERYGITPQQFIDLKGLMGDKSDNIPGVPNIGEKTAIKLLKDFGTIENLIQNLSQLKGKIKENIENNKELAIMSKRLATIKRDIPIEIDFEEYKVKKFNEEKLLELFNKLEFFSLIDNIKKESSIEIVDNHKVEKWSKVDIKELVTLLQDNRNIAFYPLIYEGEIKKIAFSFGKDTVYIDVFQTEDLKEIFEKEDFEFTTHEIKDFLVRLSYKGIECKSKYIDTAVMAYLLNPSESNYDLDRVLKKYLKVDVPSYEGIFGKGRDKKKIEEIDENILADYICSRCVYLFDLKEKLMNFIEEMDMKKLLLEIEMPLVEVLKSMEVSGFTLDKEVLKELSQKIDDRIGEILDKIYKEAGYQFNVNSPKQLSEFLFEKLNLPVIKKTKTGYSTDSEVLEQLVPYNDIVSDIIEYRQLTKLKSTYIDGFLPLMDENNRVHSNFKQMVTATGRISSTEPNLQNIPIREEFGRQIRRAFIPRSRDGYIVSADYSQIELRVLAHVSGDEKLIESFMNNEDIHLRTASEVFKVPMEKVTPEMRRAAKAVNYGIIYGISDYGLSRRLKISRKEAKEYINNYFERYKGVKDYIEKIVRFAKENGYVTTIMNRRRYIPEINSRNFTQRSQAERLAMNAPIQGSAADIIKMAMVKVYNDLKKLKLKSKLILQVHDELVVDTYKDEVDIIKKILKENMENVVQLKVPLVVEIGVGPNWFLAK
normalized observed ratios of Cy3/Cy5 signal versus target ratios [1]: very close to the target ratios
incorporation of Cy3 versus Cy5 in cDNA probes [2]: near even incorporation of Cy3 and Cy5
incorporation of Cy3 versus Cy5 in cDNA probes [3]: near even incorporation of Cy3 and Cy5
concentration of Cy3.5 dCTP at which the enzyme was able to incorporate ([4]; 10 min single nucleotide incorporation): ≤ 0.2 µM
fold less concentration of dCTP at which P+1 product is achieved ([4]; dCTP, compared with enzymes without the DR change): 10-100 fold
lower concentration of dye-dNTP at which incorporation is achieved compared to wild type polymerase ([4]; dye-CTP (Cy3.5-dCTP)): less than 10 times
concentration of Cy3.5-dCTP at which the enzyme was able to incorporate [5]: ≤ 0.2 µM
fold less concentration of dye-dCTP at which P+1 product is achieved ([5]; dye-dCTP, compared with enzymes without the DR change): 10-100 fold
